US20240141072A1 (published 2024)

B1: 4G02 anti-DLL3 trispecific protein (other)
chain: EVQLVESGGGLVQPGGSLTLSCAASGSSVKFLSMAWYRQAPGKKRELVAGISRDGSTDYIDSVKGRFTISRDNAKNSVYLQMNSLRAEDTAVYYCYAYRWTTRHTYWGQGTLVTVSS
notes: not shown: linker 1808, anti-albumin sdAb, linker 1808, anti-CD3 fragment, His6 1819
B2: 4H07 anti-DLL3 trispecific protein (other)
chain: EVQLVESGGGLVQPGGSLTLSCAASGRSVSFLSMAWYRQAPGKKRELVAGISANGSTDYIDSVKGRFTISRDNAKNSVYLQMNSLRAEDTAVYYCYAYRWSTRYTYWGQGTLVTVSS
notes: as for B1
B3: 4G010 anti-DLL3 trispecific protein (other)
chain: EVQLVESGGGLVQPGGSLTLSCAASGHSVSFLSMAWYRQAPGKKRELVAGISADGSTDYIASVKGRFTISRDNAKNSVYLQMNSLRAEDTAVYYCYAYRWSTRYTYWGQGTLVTVSS
notes: as for B1
B4: 4H01 anti-DLL3 trispecific protein (other)
chain: EVQLVESGGGLVQPGGSLTLSCAASGSSVSFLSMAWYRQAPGKKRELVAGISANGSTDYYDSVKGRFTISRDNAKNSVYLQMNSLRAEDTAVYYCYAYRWRTRYTYWGQGTLVTVSS
notes: as for B1
B5: 4G07 anti-DLL3 trispecific protein (other)
chain: EVQLVESGGGLVQPGGSLTLSCAASGSSVSFLSVAWYRQAPGKKRELVAGISANGSTDYIDSVKGRFTISRDNAKNSVYLQMNSLRAEDTAVYYCYAYRWTNRYTYWGQGTLVTVSS
notes: as for B1
B6: 4H03 anti-DLL3 trispecific protein (other)
chain: EVQLVESGGGLVQPGGSLTLSCAASGSRVSFLSMAWYRQAPGKKRELVAGISADGSTSYIDSVKGRFTISRDNAKNSVYLQMNSLRAEDTAVYYCYAYRWTTRYTYWGQGTLVTVSS
notes: as for B1
B7: 4G08 anti-DLL3 trispecific protein (other)
chain: EVQLVESGGGLVQPGGSLTLSCAASGSSVRFLSMAWYRQAPGKKRELVAGISTDGSTDYIDSVKGRFTISRDNAKNSVYLQMNSLRAEDTAVYYCYAYRWTTRYRYWGQGTLVTVSS
notes: as for B1
B8: 4H05 anti-DLL3 trispecific protein (other)
chain: EVQLVESGGGLVQPGGSLTLSCAASGSSVSRLSMAWYRQAPGKKRELVAGISARGSTDYIDSVKGRFTISRDNAKNSVYLQMNSLRAEDTAVYYCYAYRWTTRSTYWGQGTLVTVSS
notes: as for B1
B9: 4H08 anti-DLL3 trispecific protein (other)
chain: EVQLVESGGGLVQPGGSLTLSCAASGSSVKFLSMAWYRQAPGKKRELVAGISADGSTDYVDSVKGRFTISRDNAKNSVYLQMNSLRAEDTAVYYCYAYRWSTRYTYWGQGTLVTVSS
notes: as for B1
B10: 4G09 anti-DLL3 trispecific protein (other)
chain: EVQLVESGGGLVQPGGSLTLSCAASGSRVSFLSMAWYRQAPGKKRELVAGISYDGSTDYIDSVKGRFTISRDNAKNSVYLQMNSLRAEDTAVYYCYAYRWTTRRTYWGQGTLVTVSS
notes: as for B1
B11: 4H06 anti-DLL3 trispecific protein (other)
chain: EVQLVESGGGLVQPGGSLTLSCAASGRSVSFLSMAWYRQAPGKKRELVAGISADGSTIYIDSVKGRFTISRDNAKNSVYLQMNSLRAEDTAVYYCYAYRWTTRYTYWGQGTLVTVSS
notes: as for B1
B12: 4G05 anti-DLL3 trispecific protein (other)
chain: EVQLVESGGGLVQPGGSLTLSCAASGSSVSILSMAWYRQAPGKKRELVAGISADGSTIYIDSVKGRFTISRDNAKNSVYLQMNSLRAEDTAVYYCYAYRWHTRYTYWGQGTLVTVSS
notes: as for B1
B13: 4G03 anti-DLL3 trispecific protein (other)
chain: EVQLVESGGGLVQPGGSLTLSCAASGSSVKFLSMAWYRQAPGKKRELVAGISADGSTDYIHSVKGRFTISRDNAKNSVYLQMNSLRAEDTAVYYCYAYRWTRRYTYWGQGTLVTVSS
notes: as for B1
B14: 4G011 anti-DLL3 trispecific protein (other)
chain: EVQLVESGGGLVQPGGSLTLSCAASGSSVRFLSMAWYRQAPGKKRELVAGISADGSTDYIGSVKGRFTISRDNAKNSVYLQMNSLRAEDTAVYYCYAYRWSTRYTYWGQGTLVTVSS
notes: as for B1

target: T1, biotinylated human DLL3 protein expressed as a human IgG1 fusion protein (human, UniProt Q9NYJ7 27-492, limits assumed, biotinylated); test: Octet BLI, single 50 nM
T1 sequence: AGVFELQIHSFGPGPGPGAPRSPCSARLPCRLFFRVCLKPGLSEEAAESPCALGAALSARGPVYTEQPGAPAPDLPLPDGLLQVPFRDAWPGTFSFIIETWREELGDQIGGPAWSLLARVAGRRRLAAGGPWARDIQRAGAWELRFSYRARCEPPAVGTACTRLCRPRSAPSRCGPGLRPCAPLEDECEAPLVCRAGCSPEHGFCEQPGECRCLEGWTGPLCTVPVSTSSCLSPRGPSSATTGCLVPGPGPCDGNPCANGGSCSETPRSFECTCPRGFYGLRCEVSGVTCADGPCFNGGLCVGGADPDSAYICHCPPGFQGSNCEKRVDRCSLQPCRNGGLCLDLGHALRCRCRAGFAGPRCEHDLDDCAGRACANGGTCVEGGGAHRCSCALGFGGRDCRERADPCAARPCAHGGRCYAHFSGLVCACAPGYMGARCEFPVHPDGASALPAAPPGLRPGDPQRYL
How it was run: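 Read-out is binding affinity to human DLL3. Conditioned medium containing a known amount of each trispecific protein was run against the immobilised biotinylated DLL3 fusion.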

Row | Binder | Kd [nM]
1 | B1 | 15
2 | B2 | 16
3 | B3 | 9.9
4 | B4 | 21
5 | B5 | 18
6 | B6 | 13
7 | B7 | 7.6
8 | B8 | 64
9 | B9 | 8.9
10 | B10 | 8.8
11 | B11 | 18
12 | B12 | 9.7
13 | B13 | 20
14 | B14 | 7.5
